Laboratory results: the supplement of paper PMC9233669
Variants at the floor of the assay were thinned out.

Legend:
biotinyl-Val-oxazolone = assay: self-aminoacylation, catalytic enhancement (BVO) (fold over background); higher = more active; k-Seq, kA / k0A0; sequences stand for … in GGGAAUGGAUCCACAUCUACGAAUUC…UUCACUGCAGACUUGACGAAGCUG
In short: (§1)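 The uncatalyzed rate is the low-activity peak of a bimodal Gaussian fit, and catalytic enhancement is median kA divided by it. The kA values came from pseudo-first-order fits, with 1000 bootstraps, of per-sequence fraction reacted measured by streptavidin capture, triplicate qPCR and Illumina sequencing. Mutagenized RNA pools with a 21-nt variable region (0.43 μM) were reacted with each biotinyl-aminoacyl-oxazolone at 2–1250 μM in 50 μL HEPES/NaCl/KCl/MgCl2/CaCl2 buffer with 5% acetonitrile, pH 6.9–7.0, for 90 minutes at room temperature.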

biotinyl-Met-oxazolone = assay: self-aminoacylation, catalytic enhancement (BMO) (fold over background); higher = more active; k-Seq, kA / k0A0; sequences stand for … in GGGAAUGGAUCCACAUCUACGAAUUC…UUCACUGCAGACUUGACGAAGCUG
In short: as §1

biotinyl-Phe-oxazolone = assay: self-aminoacylation, catalytic enhancement (BFO) (fold over background); higher = more active; k-Seq, kA / k0A0; sequences stand for … in GGGAAUGGAUCCACAUCUACGAAUUC…UUCACUGCAGACUUGACGAAGCUG
In short: as §1

biotinyl-Ile-oxazolone = assay: self-aminoacylation, catalytic enhancement (BIO) (fold over background); higher = more active; k-Seq, kA / k0A0; sequences stand for … in GGGAAUGGAUCCACAUCUACGAAUUC…UUCACUGCAGACUUGACGAAGCUG
In short: as §1

biotinyl-Leu-oxazolone = assay: self-aminoacylation, catalytic enhancement (BLO) (fold over background); higher = more active; k-Seq, kA / k0A0; sequences stand for … in GGGAAUGGAUCCACAUCUACGAAUUC…UUCACUGCAGACUUGACGAAGCUG
In short: as §1

biotinyl-Trp-oxazolone = assay: self-aminoacylation, catalytic enhancement (BWO) (fold over background); higher = more active; k-Seq, kA / k0A0; sequences stand for … in GGGAAUGGAUCCACAUCUACGAAUUC…UUCACUGCAGACUUGACGAAGCUG
In short: as §1

Sequence | self-aminoacylation (biotinyl-Val-oxazolone) | self-aminoacylation (biotinyl-Met-oxazolone) | self-aminoacylation (biotinyl-Phe-oxazolone) | self-aminoacylation (biotinyl-Ile-oxazolone) | self-aminoacylation (biotinyl-Leu-oxazolone) | self-aminoacylation (biotinyl-Trp-oxazolone)
CUACUAGAAACAAUCGGUCUG [Fam1A.1 aminoacylation ribozyme variant] | 0.639 | 0.687 | 0.401 | 0.673 | 0.619 | 0.625
CUACUCCAAACAAGCGGUCUG [Fam1A.1 aminoacylation ribozyme variant] | 1.14 | 1.13 | 2.15 | 1.2 | 0.802 | 0.584
CUACUCCAAACAAUCGGUCUU [Fam1A.1 aminoacylation ribozyme variant] | 0.958 | 0.803 | 1.74 | 0.864 | 0.868 | 1.2
CUACUCCAAACUAUCGGUCUG [Fam1A.1 aminoacylation ribozyme variant] | 1.07 | 0.806 | 0.747 | 0.926 | 0.872 | 0.822
CUACUCCGAACAAUCGGUCUG [Fam1A.1 aminoacylation ribozyme variant] | 0.812 | 0.668 | 0.826 | 0.847 | 0.889 | 0.806
CUACUGCAAACAACCGGUCUG [Fam1A.1 aminoacylation ribozyme variant] | 0.836 | 0.762 | 2.5 | 1.02 | 0.953 | 0.804
CUACUGCAAACAAUCGUUCUG [Fam1A.1 aminoacylation ribozyme variant] | 0.735 | 0.818 | 0.732 | 0.702 | 0.647 | 0.574
CUACUGCAAACAAUUGGUCUG [Fam1A.1 aminoacylation ribozyme variant] | 1.07 | 0.966 | 1.18 | 1.19 | 0.823 | 0.956
CUACUGCAAACUAUCGGUCUG [Fam1A.1 aminoacylation ribozyme variant] | 1.12 | 0.824 | 1.14 | 1.02 | 1.17 | 1.18
CUACUGCAGACAAUCGGUCUG [Fam1A.1 aminoacylation ribozyme variant] | 1.04 | 1.06 | 0.577 | 0.897 | 1.07 | 0.497
CUACUGUAAACAAUCGGUCUG [Fam1A.1 aminoacylation ribozyme variant] | 0.741 | 0.887 | 0.659 | 0.897 | 0.863 | 0.53
CUACUUAAAACAAUCGCUCUG [Fam1A.1 aminoacylation ribozyme variant] | 0.727 | 0.706 | 0.52 | 0.623 | 0.481 | 0.462
CUACUUAAAACAAUCGGUCGG [Fam1A.1 aminoacylation ribozyme variant] | 0.74 | 0.786 | 0.727 | 0.878 | 0.857 | 0.59
CUACUUAAAACAAUCGUUCUG [Fam1A.1 aminoacylation ribozyme variant] | 0.57 | 0.592 | 0.579 | 0.568 | 0.432 | 0.503
CUACUUCAAAAAAUCAGUCUG [Fam1A.1 aminoacylation ribozyme variant] | 0.754 | 0.744 | 5.75 | 0.841 | 0.804 | 2.61
CUACUUCAAAAAAUCGAUCUG [Fam1A.1 aminoacylation ribozyme variant] | 0.585 | 0.601 | 1.46 | 0.663 | 0.6 | 0.604
CUACUUCAAAAAAUCGGACUG [Fam1A.1 aminoacylation ribozyme variant] | 0.539 | 0.652 | 3.47 | 0.922 | 0.733 | 2.3
CUACUUCAAAAAAUCGGUGUG [Fam1A.1 aminoacylation ribozyme variant] | 0.814 | 0.946 | 1.89 | 0.889 | 1.31 | 1.53
CUACUUCAAAAAGUCGGUCUG [Fam1A.1 aminoacylation ribozyme variant] | 0.773 | 0.856 | 0.598 | 0.876 | 0.779 | 0.579
CUACUUCAAAAUAUCGGUCUG [Fam1A.1 aminoacylation ribozyme variant] | 0.911 | 0.936 | 1.01 | 1.01 | 0.798 | 0.973
CUACUUCAAACAAACGGCCUG [Fam1A.1 aminoacylation ribozyme variant] | 1.13 | 1.01 | 0.719 | 1.38 | 1.18 | 0.967

Sequence | self-aminoacylation (biotinyl-Val-oxazolone) | self-aminoacylation (biotinyl-Met-oxazolone) | self-aminoacylation (biotinyl-Phe-oxazolone) | self-aminoacylation (biotinyl-Ile-oxazolone) | self-aminoacylation (biotinyl-Leu-oxazolone) | self-aminoacylation (biotinyl-Trp-oxazolone)
CUACUUCAAACAAACGGUCUA [Fam1A.1 aminoacylation ribozyme variant] | 0.742 | 0.665 | 0.773 | 0.751 | 0.696 | 0.537
CUACUUCAAACAAACGGUCUG [Fam1A.1 aminoacylation ribozyme variant] | 0.812 | 0.664 | 0.894 | 0.77 | 0.666 | 0.615
CUACUUCAAACAACCAGUCUG [Fam1A.1 aminoacylation ribozyme variant] | 0.797 | 0.899 | 0.953 | 1.02 | 0.668 | 0.573
CUACUUCAAACAACCGCUCUG [Fam1A.1 aminoacylation ribozyme variant] | 0.769 | 0.774 | 0.457 | 0.776 | 0.547 | 0.619
CUACUUCAAACAACCGGCCUG [Fam1A.1 aminoacylation ribozyme variant] | 1.86 | 2.4 | 2.27 | 1.8 | 1.51 | 1.49
CUACUUCAAACAACCGGUCUG [Fam1A.1 aminoacylation ribozyme variant] | 0.845 | 0.729 | 1.07 | 0.874 | 0.791 | 0.844
CUACUUCAAACAAGCGGACUG [Fam1A.1 aminoacylation ribozyme variant] | 0.896 | 0.81 | 0.818 | 0.91 | 0.631 | 0.644
CUACUUCAAACAAGCGGCCUG [Fam1A.1 aminoacylation ribozyme variant] | 1.83 | 1.32 | 0.592 | 2.41 | 2.08 | 1.68
CUACUUCAAACAAGCGUUCUG [Fam1A.1 aminoacylation ribozyme variant] | 0.499 | 0.499 | 0.391 | 0.481 | 0.517 | 0.503
CUACUUCAAACAAGCUGUCUG [Fam1A.1 aminoacylation ribozyme variant] | 0.734 | 0.7 | 0.642 | 0.733 | 0.795 | 0.356
CUACUUCAAACAAUAGGUGUG [Fam1A.1 aminoacylation ribozyme variant] | 0.975 | 1.22 | 1.38 | 1.07 | 1.25 | 0.781
CUACUUCAAACAAUCAGGCUG [Fam1A.1 aminoacylation ribozyme variant] | 0.723 | 0.549 | 2.7 | 0.911 | 0.78 | 1.33
CUACUUCAAACAAUCAGUAUG [Fam1A.1 aminoacylation ribozyme variant] | 0.819 | 0.891 | 6.02 | 0.847 | 0.777 | 2.46
CUACUUCAAACAAUCAGUCUC [Fam1A.1 aminoacylation ribozyme variant] | 0.904 | 0.723 | 25.9 | 0.833 | 0.872 | 8
CUACUUCAAACAAUCAGUCUU [Fam1A.1 aminoacylation ribozyme variant] | 0.942 | 0.854 | 13.2 | 0.938 | 0.935 | 4.96
CUACUUCAAACAAUCCGUCAG [Fam1A.1 aminoacylation ribozyme variant] | 0.934 | 0.684 | 0.797 | 0.951 | 0.613 | 0.643
CUACUUCAAACAAUCCGUCCG [Fam1A.1 aminoacylation ribozyme variant] | 0.903 | 0.708 | 0.694 | 0.825 | 0.927 | 0.751
CUACUUCAAACAAUCCGUCUC [Fam1A.1 aminoacylation ribozyme variant] | 0.751 | 0.471 | 1.18 | 0.634 | 0.44 | 0.858
CUACUUCAAACAAUCCGUGUG [Fam1A.1 aminoacylation ribozyme variant] | 1.88 | 2.86 | 7.45 | 1.99 | 3.84 | 2.52
CUACUUCAAACAAUCGCUCUA [Fam1A.1 aminoacylation ribozyme variant] | 0.948 | 1.05 | 0.778 | 0.862 | 0.642 | 0.736
CUACUUCAAACAAUCGCUCUC [Fam1A.1 aminoacylation ribozyme variant] | 1.02 | 0.384 | 2.18 | 0.621 | 0.515 | 1.2
